The results in this text go back to article PMC9555238, “Interaction of BES1 and LBD37 transcription factors modulates brassinosteroid-regulated root forging response under low nitrogen in arabidopsis”.

The target of the series is T1, LBD37 (Arabidopsis thaliana, UniProt Q9FN11 1-250).
T1 sequence: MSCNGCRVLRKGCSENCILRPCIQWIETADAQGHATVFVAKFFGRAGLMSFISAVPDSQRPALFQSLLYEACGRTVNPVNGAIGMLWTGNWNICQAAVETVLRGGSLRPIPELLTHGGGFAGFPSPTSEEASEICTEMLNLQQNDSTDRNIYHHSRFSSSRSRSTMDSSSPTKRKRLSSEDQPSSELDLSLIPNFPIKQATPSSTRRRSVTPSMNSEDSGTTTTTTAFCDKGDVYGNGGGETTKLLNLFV
As to the kind of experiment: EMSA; 5 mM HEPES-KOH pH 8.0, 50 mM KCl, 1 mM DTT, 10% glycerol, 20 uL, on ice 60 min; 5% native PAGE in TBE. The note with it: protein: recombinant; tags: MBP (N-terminal, pMAL-c2X); (LightShift chemiluminescent kit). A general note: Mobility shift assays separate free from complexed probe on a gel.

B1: NRT2.1 promoter probe, mutated LOB motif (dsDNA)
DNA 1: AGACTAGGAAGATGCTTGAAAAGAAAATGGATTCCTCGAAA
DNA 2: TTTCGAGGAATCCATTTTCTTTTCAAGCATCTTCCTAGTCT
Turning to B1, the binding result is recorded as “no binding”.
